This note sets out measurements from FireProtDB (doi:10.1021/bi00212a026).

For the series the following is noted: Bacillus amyloliquefaciens; pH 6.3; 25 °C; Urea; Fluorescence; MES 50 mM; NaCl 0.15 M; reversible: yes; whole UniProt chain shown.

B1: Ribonuclease wild type, P00648 (protein)
chain: MMKMEGIALKKRLSWISVCLLVLVSAAGMLFSTAAKTETSSHKAHTEAQVINTFDGVADYLQTYHKLPDNYITKSEAQALGWVASKGNLADVAPGKSIGGDIFSNREGKLPGKSGRTWREADINYTSGFRNSDRILYSSDWLIYKTTDHYQTFTKIR
As to B1, the denaturant m value worked out at 1.92 kcal/mol/M, the “denaturant midpoint (higher = more stable)” value was found to be 4.58 M and the unfolding free energy came to 8.79 kcal/mol.
